Results taken from the supplement of paper PMC12042874.
± gives the uncertainty stated by the source.

Key:
[1] = amyloid nucleation score (Sup35N fusion, yeast selection) (log enrichment); library NNK1; higher = more nucleation; inactive = no reads after selection
Summary of the method: (§1)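 Plasmid inserts were Illumina-sequenced at input and output from psi-negative yeast expressing Sup35N fused to peptides of 20 random codons. The yeast were induced with 100 μM copper sulfate for 24 hours and grown 7 days at 30°C on medium lacking adenine and uracil, and sequences with under 100 input reads were excluded. Nucleation score is the DiMSum log enrichment of output over input reads, centred on the mode score of non-aggregating sequences.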

[2] = amyloid nucleation score (Sup35N fusion, yeast selection) (log enrichment); library NNK2; higher = more nucleation; inactive = no reads after selection
Summary of the method: as §1

Substance | amyloid nucleation score [1] | amyloid nucleation score [2]
SYRSEGAMETLIDGRLSDLS | 1.16 ± 0.76 | –
YGTNRSWGDMEKISSHKRCW | -0.321 ± 0.34 | –
VCAEWGAVAPGIGKEYQQRM | 2.04 ± 0.32 | –
FWGCTQMSRLDATDVSL | 0.867 ± 1 | –
NPNMVSRPCRVGRRPFDVGL | -0.022 ± 0.45 | –
LKWSSGHGKIGSNVWRRVYC | 0.42 ± 1.2 | –
HMVFC | -0.446 ± 0.33 | –
FLRCRFLYQQ | 0.4 ± 0.39 | –
RGSEPAIGLMMVLP | 0.458 ± 0.41 | –
INYFRWGDIFVYSNSKSSRL | 0.511 ± 0.17 | –
LLAPAS | 0.032 ± 0.35 | –
QVRLVNWVCRM | 3.71 ± 0.059 | –
TVKSWKFNRFIGLKRSTESL | 0.238 ± 0.42 | –
ILVPYLIAFFMEYRSRLCRF | 0.254 ± 0.27 | –
VRYYMALMRWDDNVNSMCMG | inactive | –
KHYIKRASDGHAFSYVHLSL | 0.068 ± 0.38 | –
RPNCIVINGVKWYSAYWIGI | -0.915 ± 0.67 | –
DFLDNVFVTSECHVN | 0.255 ± 0.6 | –
EPVYISDWWTACEVADHVSL | inactive | –
SNTSRLVRRVVQSPYTTCGG | 0.312 ± 0.46 | –
FGHKKPVGLTGLNGFSGTGV | 1.91 ± 0.63 | –
YSARLLSERIKWHFTLMMND | 0.41 ± 0.36 | –
ESHMRNHR | 0.312 ± 0.37 | –
LYAYDWLHEGNSSHKSDLVM | -0.791 ± 0.77 | –
WLISLFRDDDRFNKVSKRAA | -0.3 ± 0.38 | –

Substance | amyloid nucleation score [1] | amyloid nucleation score [2]
TEEKSRVRLFNRRHRGISRG | 3.95 ± 0.091 | –
ALWVNVMQARAIGSGFGRTK | -0.415 ± 0.58 | –
SSSSYIYCYFFPQSMVMVFS | 3.66 ± 0.1 | –
YGRATIWNYKSSMDGPKNGK | inactive | –
AGHLGWARFVYTLLSEDTVH | 0.031 ± 0.79 | –
RRFPRMWGLCMSLFRSHCGS | 1.92 ± 0.27 | –
GFSLSPRAWRTGGVWAECAE | 0.7 ± 0.82 | –
DGIRSWENSMVIYGI | -0.091 ± 0.4 | –
ILRNGRTYGAEVLQQLWNVL | -0.418 ± 0.73 | –
MVDPRVTS | -0.86 ± 1.1 | –
GLLVGLQQCYNYGWKGSDCN | 0.504 ± 0.75 | –
TPVTRIILVVVIRVPSGSGY | -1.03 ± 0.8 | –
TIFAWAKHGQSNTVSRLGGF | 0.118 ± 0.44 | –
MMVRGMW | 1.34 ± 0.35 | –
GNGFVL | 0.999 ± 0.45 | –
LRSGKAQYTEVVLLRIRPGF | -1.4 ± 2.7 | –
WCNNYLSRLCRRVINLEAGL | -1.13 ± 1.9 | –
VCYCLKWEAMSVKLLCMGCA | -0.688 ± 0.6 | –
KFIFVGNGECMRPGCSDDSL | 1.99 ± 0.38 | –
IYTSLCQRGGMVMHESKYCC | 0.624 ± 0.65 | –
CYKLGYGFVHFSAIMVNIIS | -1.22 ± 1.7 | –
CVKASLMMWVQFYIDSY | inactive | –
CFFASVHPLCYRGVSGVGVF | -1.28 ± 2.1 | –
YVDDGMCSAICYSTVNNMSN | 8.666 ± 0.047 | –
LNRSNWANFCMAEFMDPRS | 0.488 ± 0.58 | –

Substance | amyloid nucleation score [1] | amyloid nucleation score [2]
SCGNVGQRVVNIQYVGNSRF | 6.34 ± 0.077 | –
VFAVLRLPPKMTARSMGASP | 0.661 ± 0.61 | –
VYRNASLCVSEVL | 0.211 ± 0.97 | –
RVVVCRWVDRYGIAASGAIT | 0.643 ± 0.54 | –
FDRHPGTYCDVKLLCREHSA | inactive | –
GPQIGG | 1.38 ± 0.17 | –
VDTLLARIIRLRHQFSNTAV | 0.16 ± 0.29 | –
GAPRSCGLAD | 0.27 ± 0.63 | –
VMWGQPCQIFSGYAYLRHKV | 0.053 ± 0.48 | –
CMRHHMSQHCIPGGPRCRGA | -0.912 ± 0.65 | –
GGVISESTGYLRLIHRRWDG | -0.751 ± 1.7 | –
DLIRPLSCTRVLSPNFLCS | -0.54 ± 0.66 | –
CDKKWIASQSMVGRRTMV | inactive | –
KSKIQDLCCPSRPVVGMVCL | 0.239 ± 0.43 | –
MIAHLAPINRDAEYFINAIC | -0.236 ± 0.27 | –
SKASMEGYW | 0.739 ± 0.54 | –
RYHSPEYTARTLMG | 0.264 ± 0.44 | –
LPSGLRCRTSRMDVAKLAK | 0.441 ± 0.47 | –
RESASSNGYVYILCMQRVPR | 0.102 ± 0.34 | –
CSLTCVSWHMGSF | 2.15 ± 0.32 | –
KVWSLKLSFGSLNMPMGYV | 0.399 ± 0.26 | –
PTTFVENIAWRRGSTSCLCG | inactive | –
TQRFFIVRMPSVCNNYYHLA | 4.52 ± 0.067 | –
CNSFCGMHCGNV | 0.238 ± 0.62 | –
KCRGCSMMRAS | 1.84 ± 0.5 | –

Substance | amyloid nucleation score [1] | amyloid nucleation score [2]
YFRVLGN | -0.011 ± 0.3 | –
SSYVMVCMKTYWCQEL | 2.45 ± 0.18 | –
FLLLAC | 0.197 ± 0.9 | –
TCRTEKTNTELMG | 1.78 ± 0.6 | –
KCMFVESKSRDNCVMSNES | -0.055 ± 0.9 | –
MLFRYRSPHTVWLIRLCMKQ | 0.839 ± 0.56 | –
NWTIHVDNSGHVIRINTHYW | 6.72 ± 0.074 | –
YSASKFTWPCIKTSKCGALC | – | -1.09 ± 0.63
RFLSYTSCLEMIVFCGRVQG | – | 0.207 ± 0.23
LFFIIDNSQLSSSVDGLIVE | – | -0.583 ± 1
CRNLPGVCEMPSGVANYRVL | – | -0.547 ± 1.1
RFFFYGLGMFYIETFYLLWF | – | inactive
RAYFTSKMCIRQTWTEKILY | – | 5.13 ± 0.052
KMRDGFISLVKCEYVGGFGC | – | -0.856 ± 0.76
FNYGCFVLDSDHVAGKGILI | – | inactive
CLTSGHL | – | 0.372 ± 0.74
LLIREMEHLFVEAKVENLRE | – | 0.531 ± 0.33
MYVDLKLSYNHSPATLW | – | 5.22 ± 0.061
VDLAR | – | inactive
GALVR | – | -1.08 ± 0.55
YVWSAKHSNIDCRVES | – | 0.877 ± 0.36
NDSNYKPANSYRSPSGNRMV | – | inactive
VGRVHSLSDYCDFGKSWFKY | – | -0.864 ± 0.74
KMFVILIIHTLLGAITAVCG | – | 0.186 ± 0.76
SRRGDRSRWCEMVMDVKVCS | – | 5.208 ± 0.041

Substance | amyloid nucleation score [1] | amyloid nucleation score [2]
SRRETTYHVVMDTFPTFAIT | – | 0.943 ± 0.52
KWTFLRLILTMV | – | -0.511 ± 0.56
PGSTRAFIMAVWGAPTEWER | – | 2.86 ± 0.16
LYCIVQGKSSGIHQRATFCF | – | inactive
IALTQILLRFFGLHA | – | -0.305 ± 1.1
GQGKRNVSLSNGGDKFNLDV | – | 4.98 ± 0.1
NHTSNIGSRGTAFFWVLR | – | 7.187 ± 0.069
HVAEEVMGIVARVRVLMILS | – | -0.598 ± 0.45
RTNYWVIAWIYAFGS | – | -0.716 ± 1.1
DSCGLCRYGGEMFRKFKFIS | – | inactive
HIWRHDRVLLGSSNTKYMCG | – | 0.759 ± 0.8
LVISM | – | 0.348 ± 0.46
RRLSNRRWLIFCQWSFHYGV | – | 0.242 ± 0.61
DEPLWKLKFKFEWFIRTLVI | – | -1.37 ± 0.76
YMLMREASGLLRPGAEMWFN | – | -0.177 ± 0.45
ADATGVECPIYDRRRVNRTN | – | -0.235 ± 0.8
TLLDNRRGCVMSWRGFLWMR | – | -0.363 ± 0.65
KLDWSNRLCSLNFECSCQLL | – | 3.78 ± 0.094
ACLGHSLAVVRTMTDSRKRL | – | 0.367 ± 0.74
SLVENRVGISDVWKVSTLVG | – | 0.042 ± 0.29
KRILS | – | -0.13 ± 0.34
CRSSGFRFTLRKWCWNVNEC | – | -0.7 ± 0.76
QPAVQGITRRKVCWVIMQNA | – | 0.336 ± 0.46
AKVCFFKHESPMGQVGAY | – | -1.2 ± 0.54
LLPRDALFPPIFVIISECVF | – | -0.063 ± 0.45

Substance | amyloid nucleation score [1] | amyloid nucleation score [2]
CKLTATCQSQMTEIGLGSFA | – | 3.62 ± 0.046
VCVLGIGT | – | inactive
VTTVRSPILLTLRTVPF | – | 0.425 ± 0.38
CEVFYSVGRSK | – | -0.633 ± 1.1
ACKVYKLAMNIVLGGTGWSD | – | 4.8 ± 0.077
CVAWKR | – | 0.554 ± 0.48
AKGLG | – | 1.52 ± 0.31
SLKLLYKMKLRSGQWAHIYR | – | 0.03 ± 0.43
FIDRMKMLWGLKSWDFQCHW | – | 0.362 ± 0.45
HESVHTTHFMAFYC | – | 0.124 ± 0.61
IDNSTMDTCIMNRSQFTIRL | – | -0.412 ± 0.54
CDHQRLMTYLVPAGYMPDTM | – | -0.201 ± 0.62
FCKRKVTCVVY | – | -0.538 ± 0.45
VCQLQYILRNMLDKTRVSQD | – | 0.912 ± 0.26
SALRSSEEFSAFCVE | – | -0.084 ± 0.74
LVLLKGYKRSNNGKQCYAGL | – | 0.365 ± 0.66
RVRWYSCLVFMISTGFAFL | – | -0.702 ± 0.76
TLGKVGHYRRNNNMPVARFD | – | -0.11 ± 0.74
RDFVE | – | -0.386 ± 0.56
HSQRNP | – | inactive
YASTRRIGLEDIVW | – | -0.821 ± 0.78
RFMVSRYFISGPIIVSC | – | 0.284 ± 1.1
RSSSSTMDMM | – | 0.85 ± 0.74
LTTVGHSVKLSWRVLSG | – | 1.9 ± 0.18
MMYDRIIQFTLYTLI | – | 3.09 ± 0.057

Substance | amyloid nucleation score [1] | amyloid nucleation score [2]
GWLHMYY | – | -0.268 ± 0.36
DLSRLCVGHAVI | – | 0.446 ± 0.18
PSWHI | – | -0.193 ± 0.47
LWCPVHRAYGYAIHSVKGAH | – | 1.04 ± 0.34
VKLMY | – | -1.12 ± 0.62
NMSLHRAILGFKAATIMRSL | – | -0.821 ± 1.1
IYSGETYKTWLFHGINV | – | -1.4 ± 0.62
CTCFVLSGSVV | – | 2.4 ± 0.13
ICRGPQSSNCMEAFVQHFTK | – | 0.417 ± 0.42
AQISVSYGIWDSCTC | – | 8.773 ± 0.032
VRTWISDSCSVYWSSRLA | – | 5.06 ± 0.084
TRMVCSFRCQESVPEP | – | 0.775 ± 0.8
WSKLYTFIFLASNKLLTWPC | – | inactive
SFFWPPHLKRVLFLQLRTIC | – | 0.777 ± 0.44
CKDTTKPGYFGFDIFPNVYE | – | 2.37 ± 0.15
SYLFIDDTVDCQLKERRYPN | – | -0.763 ± 0.62
RTHTKLGT | – | 0.462 ± 0.42
ALMLWKCKARTCISPQRRGV | – | 0.448 ± 0.4
GVSFSDYLSACCLDAGVSGY | – | 0.773 ± 0.23
